From the DeepSol protein solubility set

Assay: soluble on expression in E. coli; label from the status in PepcDB or PDB records

Sequence	soluble on expression in E. coli
MKISRETLHQLIENKLCQAGLKREHAATVAEVLVYADARGIHSHGAVRVEYYAERISKGGTNREPEFRLEETGPCSAILHADNAAGQVAAKMGMEHAIKTAQQNGVAVVGISRMGHSGAISYFVQQAARAGFIGISMCQSDPMVVPFGGAEIYYGTNPLAFAAPGEGDEILTFDMATTVQAWGKVLDARSRNMSIPDTWAVDKNGVPTTDPFAVHALLPAAGPKGYGLMMMIDVLSGVLLGLPFGRQVSSMYDDLHAGRNLGQLHIVINPNFFSSSELFRQHLSQTMRELNAITPAPGFNQVYYPGQDQDIKQRKAAVEGIEIVDDIYQYLISDALYNTSYETKNPFAQLEHHHHHH	soluble
MVRKLKTHEQKLLKKTDFMSWQVDQQGKQGDMLRKFYVKKREHYALYNTLAAKSREVADLIKNLSESDPFRSKCTEDMLTKFYAAGLVPTSDTLERIGKVTGASFARRRLPVVMRNIGMCESVKTASDLVEQGHVRIGTKLVTDPAFMVTRSSEDMITWTKASKIKKHVMDYNNTRDDFDLMD	not soluble
MKFTVGIAMNPLDQLPALARTAEECGFSSIALPDSLFFMEKQSADYPYTPDGSRMWNEETPWVDPLIAAAAMGAVTSKIEFYTQVLKLGSRNPVLLARQVGSVANLIGNRFGFGVGIGWAPEEFEWCGVPYKKRGARVDEMIDVIKLILGGGMVEYHGEFFDFDRLQMSPAPTKPVPFYVGGHTDVALRRAARVGDGWTSAMIKFDDLVQVIARLRELREEYGRADLPYEIQTVCIDRFGKDGYAELADAGVTDTIVVPWVFDGIGFDGPLEAKQDSLRKFADQYIG	not soluble
MTKQREKLIEVKNVKQHFDVSGGVVKAVNDISFDIYRGETFGLVGESGCGKSTTGRTIIRLYDATAGEVLFDGENVHGKKSRAELKKFNRKMQMIFQDPYASLNPRMTVGDIIAEGIDIHGLAKNKKERMDRVHELLNTVGLNKEHANRFPHEFSGGQRQRIGIARALAVEPEFIIADEPISALDVSIQAQVVNLLKKLQKEKGLTYLFIAHDLSMVKYISDRIGVMYRGQIVELTTSDELYANPIHPYTKSLLSAIPLPDPDYERNRKRIVYDPSQHNYGSEEPTMREIRPGHFVLCSEAEYKKYKEIYQ	not soluble
MSLTKYIFVTGGVVSSIGKGIVAASLGRLLKNRGLKVTIQKFDPYINVDPGTMSPYQHGEVFVTDDGAETDLDLGHYERFIDINLNKYSNVTTGKIYSEVLRKERKGEYLGATVQVIPHITNEIKEKIMRAAKMTDADVIITEVGGTVGDIESLPFLEALRQMKADMGSDNVMYIHTTLIPYLKAAGEMKTKPTQHSVKELRSLGIQPNILVVRTELPVSQNTKNKLAQFCDVNPEAVIESRDVETLYSIPLALQAQNMDQIVCDHLKLDAPAADMTEWRALEEKVLNLKKKTKIALVGKYVELPDAYISVVEALKHAGFDFDSDIEIDWVDSQELTAENVAERIGSADGILVPGGFGDRGIEGKIEAIRFARENDVPFLGICLGMQMACVEFGRNVVGLEDAGSAETNPDVTNNIIDLMADQENIENLGGTLRLGLYPCKLKKGTKTAAAYGNEDVVQERHRHRYEFNNKYRQLFEENGLVFSGVSPDNRLVEIVEIPEKQFFVACQFHPELISRPNRPQRLIKGFVGAALANKEKGHHHHHH	soluble
MGPYNYGWHDSDEAGKKARRGLDEDVVRYISAQKNEPEWMLEQRLKALNTFEKKPMPTWGPDLSYINFDDFKYYVRSTEKQATTWDDLPEDIKNTYDKLGIPEAEKQRLVAGVAAQYESEVVYHQIREDLETQGVIFLDTDTALKEHPELFQEYFGTVVPAGDNKFSALNSAVWSGGSFVYVPKGVHVEIPLQAYFRINTENMGQFERTLIIVDEGAYVHYVEGCTAPIYQSDSLHSAVVEIIVKKNARCRYTTIQNWSNNVLNLVTQRSKVEEGGTMEWVDGNIGSKVTMKYPAVWMVGPHAKGEVLSAAFAGEGQIQDTGAKMQHMAPYTSSNIVSKSVARSGGRAAYRGLVRVAANAHHSVSNVECDALLVDNISRSDTYPYNDIRNDHVSLGHEATVSQVSEEQLFYLQSRGIAEDEAMAMIVRGFVEPIAKELPMEYALELNRLIELQMEGSVG	not soluble
MFRAMSTRKIHGGYEKLGDEEARLKRVSSVPASVYGHSRNPVQEVKKTPTAKPTGGSVHPLFSFFDVHFQRKKKNTAKKKSLATAKPEFARYMEYVREGGVWDPSSNAPVIHYR	not soluble
MALNNVSLSSGDQRSRVAYRSSHGDLRPRASALAMVSGDGFLVSRPEAIHLGPRQAVRPSVRAESRRVDGGGRSPREPDGRGRSRQARFSPYPIPAVEPDLLRSVLQQRLIALGGVIAARISV	soluble
KQKRARLIYNPTSGQEIMKKNVAEVLDILESFGYETSAFQTTPRADSAKNEAARASQAGFDLVIAAGGDGTINEVVSGIAPLKRRPKVAIIPTGTTNDFARALKIPRGNPVEATKLIGKNQTIHMDIGRAYND	not soluble
MKVKCEECGETYTLNDGEDPDDYICECGGKLKRETFLRRTALGVGVFSIP	not soluble
MSEKMVAIMKTKPGYGAELVEVDVPKPGPGEVLIKVLATSICGTDLHIYEWNEWAQSRIKPPQIMGHEVAGEVVEIGPGVEGIEVGDYVSVETHIVCGKCYACRRGQYHVCQNTKIFGVDTDGVFAEYAVVPAQNIWKNPKSIPPEYATLQEPLGNAVDTVLAGPISGKSVLITGAGPLGLLGIAVAKASGAYPVIVSEPSDFRRELAKKVGADYVINPFEEDVVKEVMDITDGNGVDVFLEFSGAPKALEQGLQAVTPAGRVSLLGLYPGKVTIDFNNLIIFKALTIYGITGRHLWETWYTVSRLLQSGKLNLDPIITHKYKGFDKYEEAFELMRAGKTGKVVFMLK	soluble
MTMVQPSGGGASGRGSSSGLADVIDTILDKGLVIDAFVRVSVVGIEILTIDARIVVASVDTYLRFAEATNRLDLTQTGGKGLPEVLQDTTQGVSKSKTKGIAQGALETAGEKLRDIIGEPEEEEEPAPRRRRRREEE	not soluble
MAEKEHNPGNVKPNRSWTSVLGTKITFSEGLILNIEGYYKYIFNRMYIPVSIGLDDFDIRPQFNGEGRVWGIDLMLQKLQSRYWDGWLSYSYSWARYRDPSSGNATIGFSGGTRGNDWYFPNFHRFHNLNLVINIKPAPQFNFYTRFGLASGTQLPRRTTDRPATYPVFMFDDPETPGIPKFVQRYNWPSETDEDNRTTPTLSMDIKFSFFGKNRTGKTRYEIYFALENVLSLVYRPQGNTRFNTFTGVIETGSDAASYGLPIPIPSFGFKFSY	not soluble
MGSDKIHHHHHHMRRLFTSESVTEGHPDKIADQISDAILDAMLEQDPRSRVAVETLVTTGLVIIAGEVTTRAYVEIPDIARKTILEIGYTRAKYGFDGETCGVLTSIHSQSPDIALGVDKALEVKTGEEVADEFEALGAGDQGIMFGYATNETPEYMPLPITLAHKLAMRLAEVRKNGTLPFLRPDGKTQVTIEYEDDKPVRVDTVLISTQHDPDISQADLREAIIEHVINPVIPEQYRDDKMKILVNPTGRFVLGGPMADTGLTGRKIIVDTYGGWVPHGGGAFSGKDPTKVDRSAHYMARYVAKNVVAAGLADKFLIQLSYAIGVAKPVSIMIDTYGTAKVDEDKLLKVITELFDFRPGAIIKKLNLLRPIYRKTAAYGHFGRNEEEFTWEKLDMVDELKRAFNM	not soluble
MNALTPLSARLERSDGHALVTLARSRGAVRLRDLAQRGSAKAFLPRVEGDVPEVVFLNTSGGLTGGDRLSYRLEVGEGCRATATTQTAERAYAAGAGAARVEVLHEVGRDGWLDWLPQETILFEGAALERETQISLAPGAGCLMVESVVLGRAAMGETLSRLAFRDRRSILRGGKPVVVEPLALDDRALAAAGGAAMLGGARALATLAMVGPGAEDALGPARAALGEAGVEAAASAFDGKLVLRLLAADGWPLRRQVARLLTVLRGRALPRVWQVLEHHHHHH	not soluble
RGNLGQSQKVLIEFVSANPTGPLHVGHGRGAAFGATLGNVLKAAGYDVTLEYYVNDAGRQMNILAVSVWLRYLELAGEPIVFPANGYKGQYVYEIAQEIWSEQGNQFVHPWISVVENLPADEPEGGDKETYIDAIIARAQSLLGKDGFANFHQHALKTVLDDIKDDLQAFGVRFDSWFSEQSLFEDGSIEKGIQALKDRGHTYEREGALWFRATDFGDEKDRVLVRANGQTTYFASDVAYHWNKYDRGFDRVIDIFGADHHGYVTRIKTAVKALGHDESALDVILVQFAILYRGGDRVQMSTRSGSFVTLRELREEVGNDAARYFYVARKPEQHMDFDLDLAKSESSDNPVYYIQYAHARICSVLRQLKERGLKWDKDMGL	not soluble
MDLRDLKTFLHLAESRHFGRSARAMHVSPSTLSRQIQRLEEDLGQPLFVRDNRTVTLTEAGEELRVFAQQTLLQYQQLRHTLDQQGPSLSGELHIFCSVTAAYSHLPPILDRFRAEHPSVEIKLTTGDAADAMEKVVTGEADLAIAGKPETLPGAVAFSMLENLAVVLIAPALPCPVRNQVSVDKPDWSTVPFIMADQGPVRRRIELWFRRHKISNPQIYATVGGHEAMVSMVALGCGVALLPEVVLENSPEPVRNRVMILERSDEKTPFELGVCAQKKRLHEPLIDAFWKILPN	soluble
MPVKLATALSNNLFPALDSQLRAGRHIGIEELENHVFLMDFQEVLEEFYSRYNVELIRAPEGFFYLRPRSTTLIPRSVLSELDMMVGKILCYLYLSPERLAHEGIFSQQELYEELLSLADESKLLKLVNQRSTGSDLDRQKLQEKVRTSLNRLRRLGMIYFMGNDSSKFRITESVFRFGADVRSGDDAREAQLRMIRDGEAMPVEGSLSLKDDSDDNDRTDDTAPETGEDELEHHHHHH	not soluble
MTQHTRNFSFKVLTINTHKGFTAFNKRFILPELRDAVRTVGADIVCLQEVMGAHEVHPLHIENWPDTTHYEFLADTMWSDFAYGRNAVYPEGHHGNAVLSRYPIEHYENRDVSVGGSEKRGVLYCRITPPMLNRPIHVMCVHLGLRESHRQAQLTMLAGWVNALPESEPVLVAGDFNDWRQKAGPPLNAAGLEEIFTRAHGRPARTFPVSMPLLRLDRIYVKNANASSPTALPLRNWRHLSDHAPLSAEIHL	not soluble
FLKGGFDPKMNSKEALQILNLTENTLTKKKLKEVHRKIMLANHPDKGGSPFLATKINEAKDFLEKRGISK	not soluble
MGSDKIHHHHHHMSKEASFEIQLPLFAGPFDLLLFFIERDELDIYDIPISKITNDFLEYIHRLEKMNVDIASEFILVAATLMRIKAKTLLPRPDIDPQGNEIDPREELVSHLLEYKKYKSVIAEFSELEETSLKREKRGNIAKELKLLSEVSNVETELQDIDLYKLLKVFEKVIVRWKEEKTKPVHHVVQYPYSIELQKEYIINKVSRGQRISFTEIINDIPVKMAVIYNFLSILELLALQKIQLHLGEGFNNFWIAQYDGEHAAVNEYANDIE	not soluble
MGSDKIHHHHHHLRIFGKEGCRMEMQRVIELDMPVNFRDLGGYQGLDGRQVKWRKIYRSAALNEMSARDRVKLANLRITVDCDLRSSREQRSYPDLLWPGVRFVNIGLYAEGDRFNQAHPFLRLFHHLPEFDDYLPKIYQQVLLNEHSEEGIKRVFEELLKLPEDQALVYHCAAGKDRTGIISILILMALGVDDKTIAEDYLLTDELYDFSIEKQHPTNEKLSQVIAKMNVTRGEGTAVKGITETIRQGWGSFDKFFTRKLGFKQADLEKFREMYLEEEEED	not soluble
